Laboratory results as given in publication PMC4618692, “Crystal Structure and Identification of Two Key Amino Acids Involved in AI-2 Production and Biofilm Formation in Streptococcus suis LuxS” (PLoS ONE, 2015).

Target: the molecule itself
Test: SEC; size exclusion chromatography of purified LuxS (Superdex 200 named in the purification); data not shown

B1: S-ribosylhomocysteinase (LuxS) from Streptococcus suis strain HA9801 (enzyme, UniProt A4VTE8 1-160, looked up)
chain: MKKEVTVESFELDHTIVKAPYIRLISEEVGPKGDIITNFDIRLIQPNENAMDTAGLHTIEHLLAKLIRQRIDGLIDCSPFGCRTGFHMIMWGKQDSEKIAQVIKSSLEEIAEGITWEDVPGTTIESCGNYKDHSLHSAKEWAKLILSQGISTDAFERKPI
notes: also called S. suis LuxS; SS LuxS protein; source: E. coli BL21 (DE3), pET28-luxS, purified (HisTrap column, Superdex 200 size-exclusion chromatography)
  stoichiometry N: 2
